Measured values as given in the supplement of paper PMC9170038.

Tested on: MS2 coat protein
Assay: apparent KD of MS2 coat protein; designed switch direction (-1 OFF switch, 1 ON switch): -1; higher = weaker reporter binding
Method in brief: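 For each design, the apparent KD is the median over clusters of curves fitted to normalised cluster fluorescence. Clusters held RNA switches with common flanks, transcribed on Illumina chips by stalled E. coli RNA polymerase. These were titrated with SNAP-549-labelled MS2 coat protein, doubling from 0.7 or 1.5 nM to 3 µM, without input, with 200 uM small-molecule ligand, or with an oligonucleotide input.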

[1] = Eterna round: R95, input ligand: FMN 200 uM
[2] = Eterna round: R95, input ligand: microRNA oligo, concentration not stated
[3] = Eterna round: R95, input ligand: none
[4] = input ligand: microRNA oligo, concentration not stated

AGAUCCUGAGUCAGGAUAUAGAGACGGAAGUCGGGCUAGAAGGGACAUGAGGAUCACCCAUGUGGGUUCGUGCC [Lalaarveti] (puzzle: Brourd's mod of Exclusion 4)
apparent KD of MS2 coat protein [1]: 0.0335 µM | apparent KD of MS2 coat protein [2]: 0.0163 µM | apparent KD of MS2 coat protein [3]: 0.023 µM

GGACCGAUUGUUAGGAUAUCGCACGGCUAGCCCAGCGAGAAGGGACAUGAGGAUCACCCAUGUGCGCUUAGCAC [Eternabot (L1) Solution 50] (Eterna round: R97, puzzle: Brourd's mod of Exclusion 4)
apparent KD of MS2 coat protein (input ligand: FMN 200 uM): 0.156 µM | apparent KD of MS2 coat protein (input ligand: none): 0.155 µM

CUCUCGGUAGGAUAUCCUCCGCCGAACAUGAGGAUCACCCAUGUCACUGCCACUACGCUAGGAGAAGGGCCAGACG [Eternabot (L2) Solution 55] (Eterna round: R97, puzzle: Exclusion 5)
apparent KD of MS2 coat protein (input ligand: FMN 200 uM): 0.0816 µM | apparent KD of MS2 coat protein (input ligand: none): 0.0858 µM

GUCGAGUGAGGAUAUGGUGAGUAGUGCCUGAGCGCUGCUCACCAGAAGGCACAUGAGGAUCACCCAUGUAUAAC [Mat - Exclusion 4 - Mod of JL - D14] (Eterna round: R96, puzzle: Exclusion 4)
apparent KD of MS2 coat protein (input ligand: FMN 200 uM): 0.0581 µM | apparent KD of MS2 coat protein [4]: 0.0197 µM | apparent KD of MS2 coat protein (input ligand: none): 0.0261 µM

AUACCACGAGGAUAUCGUCUAUAAUACAUGAGGAUCACCCAUGUUAUAUCUGUAAUGUUUCGAGAAGGCGUGUUUU [JR_E5_Sub083] (puzzle: Exclusion 5)
apparent KD of MS2 coat protein [2]: 0.0166 µM

GAUCUGGCAGGAUAUACAUGAGGAUCACCCAUGUGCGAGCUAGCGAAAGCUAGCUCAGGUAGAAGGGUCAGAUC [Ex3 dot plot directed v1] (puzzle: Exclusion 3)
apparent KD of MS2 coat protein [2]: 0.0108 µM

CAAUGCGGAGGAUAUACAUUUAUGACUGCCACAGUACCGAGACAUGAGGAUCACCCAUGUAGAAGGCCGAUUAA [EX2 B.9] (Eterna round: R97, puzzle: Exclusion 2)
apparent KD of MS2 coat protein (input ligand: FMN 200 uM): 0.0204 µM | apparent KD of MS2 coat protein (input ligand: none): 0.0167 µM

AGAUAUUCGGUAGGAUAUCAGAAAGGAAGUGUAUGAGAAGGACCGAGCCGGAAACCGGUACAUGAGGAUCACCCAUGUGGUCCA [PowerStrip EXNG 1.23] (Eterna round: R96, puzzle: Exclusion NG 1)
apparent KD of MS2 coat protein (input ligand: FMN 200 uM): 0.0204 µM | apparent KD of MS2 coat protein [4]: 0.014 µM | apparent KD of MS2 coat protein (input ligand: none): 0.0164 µM

ACAUAAAAGGCAGGAUAUUCAAACCCAUAGCUAGAAGAAGGGCCGAAGAACUUCUAACAUGAGGAUCACCCAUGUGAGCAUGGG [Ininesxeed] (Eterna round: R96, puzzle: Exclusion NG 1)
apparent KD of MS2 coat protein (input ligand: FMN 200 uM): 0.0824 µM | apparent KD of MS2 coat protein [4]: 0.0439 µM | apparent KD of MS2 coat protein (input ligand: none): 0.0646 µM

AGUCGGCGAGGAUAUACAUGAGGAUCACCCAUGUGAUAGAGUGCACGCGUACGUGUAUGUAGAAGGCGCUGACA [Mat - Exclusion 3 - Mod of JL D97] (puzzle: Exclusion 3)
apparent KD of MS2 coat protein [2]: 0.0614 µM

UUGUUCCAUUAUGAGAUCCACAUGAGGAUCACCCAUGUAGGAGUAACAAGCUUUGCUCGAUCUAUUUCAUGCUUCUG [Eternabot (L1) Solution 40] (Eterna round: R97, puzzle: Sensor, turn-off variant 1)
apparent KD of MS2 coat protein (input ligand: FMN 200 uM): 0.0658 µM | apparent KD of MS2 coat protein (input ligand: none): 0.0806 µM

GACCCUGCCUAGGAUAUGCAUCUGUCAGUCAGGGCAGAAGGAGGCACAUGAGGAUCACCCAUGUGACCCGGCGU [EX6 C.3] (Eterna round: R97, puzzle: Exclusion 6)
apparent KD of MS2 coat protein (input ligand: FMN 200 uM): 0.0146 µM | apparent KD of MS2 coat protein (input ligand: none): 0.0145 µM

GUACUACAUGAGGAUCACCCAUGUCAGGAUAUGGGAAUUUCAUCAAAAGAUGAAAUUCUUAGAAGGGACAGUAC [Omei Ex1 A5] (Eterna round: R97, puzzle: Exclusion 1)
apparent KD of MS2 coat protein (input ligand: FMN 200 uM): 0.0246 µM | apparent KD of MS2 coat protein (input ligand: none): 0.0222 µM

UGCAGACGAGGAUAUAGAUUUGAUAACAUGAGGAUCACCCAUGUGAUCGAUAGAUCAGAUUUAGAAGGCGUCUGCU [E5/8-A4] (Eterna round: R97, puzzle: Exclusion 5)
apparent KD of MS2 coat protein (input ligand: FMN 200 uM): 0.586 µM | apparent KD of MS2 coat protein (input ligand: none): 0.715 µM

AGUAGUAGUAUCCGAUCCUACAUGAGGAUCACCCAUGUAGCUAGACGUGCACGCGAUGCGCGUCAGACUACCAGAUG [salish99_TOv1_r3_042] (puzzle: Sensor v3, turn-off variant 1)
apparent KD of MS2 coat protein [1]: 0.184 µM | apparent KD of MS2 coat protein [2]: 0.159 µM | apparent KD of MS2 coat protein [3]: 0.24 µM

CGGUGCUCGUGGAAACAUGAGGAUCACCCAUGUUGAGUUAGCGAGGAUAUCGGUAACACAUGUCACGAGAAGGCGCGAACCAGA [Ex NG3 #32] (Eterna round: R96, puzzle: Exclusion NG 3)
apparent KD of MS2 coat protein (input ligand: FMN 200 uM): 0.0187 µM | apparent KD of MS2 coat protein [4]: 0.00996 µM | apparent KD of MS2 coat protein (input ligand: none): 0.0149 µM

CGUUGGCGAGGAUAUACAUGAGGAUCACCCAUGUGAGAGAAAAAAGUGAGGAAGAAAAGUAGAAGGCGCUGACG [salish99_ex3_r3_050] (puzzle: Exclusion 3)
apparent KD of MS2 coat protein [1]: 0.35 µM | apparent KD of MS2 coat protein [2]: 0.101 µM | apparent KD of MS2 coat protein [3]: 0.0349 µM
